Experimental data published in article PMC3887256.

Target: TAP-tagged human presenilin 1 (human) (UniProt P49768)
Experiment: SEC-MALS; TAP-purified PS1 complex on Superdex S-200 10/300 in Tris buffer with 0.1% digitonin; protein and detergent masses by conjugate analysis; complex co-purified from cells

anterior pharynx 1 (aph1) (from UniProt Q96BI3 1-265) (natural protein)
stoichiometry N: 1
